B1: SLC6A3, Q01959 (peptide)
chain: QFTLRHWLKV
B2: AKAP10, O43572 (peptide)
chain: DQPLEKSTKL
B3: SH2D3C, Q8N5H7 (peptide)
chain: LEPAVRSSEL
B4: MARCHF4, Q9P2E8 (peptide)
chain: RELVMRVTTV

What was measured:
Assay in all cases: holdup assay
Parameters in all cases: key: below the threshold = too weak to quantify, mostly under pKd 3.1 to 4
Settings in all cases: plain residues with an end cap or a label only (N-terminal biotin on a linker: ado-ado)
GRID2IP_2, A4D2P6 = target: GRID2IP_2, A4D2P6
GIPC2, Q8TF65 = target: GIPC2, Q8TF65
LNX1_3, Q8TBB1 = target: LNX1_3, Q8TBB1
NHERF4_4, Q86UT5 = target: NHERF4_4, Q86UT5
Inadl_1, Q8NI35 = target: Inadl_1, Q8NI35
LNX2_3, Q8N448 = target: T1, LNX2_3, Q8N448
T1 sequence (Q8N448 463-564, limits assumed, looked up): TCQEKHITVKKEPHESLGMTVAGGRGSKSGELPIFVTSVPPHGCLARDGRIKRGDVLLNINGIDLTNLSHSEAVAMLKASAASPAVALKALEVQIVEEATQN

GORASP1, Q9BQQ3 = target: GORASP1, Q9BQQ3
DLG4_3, P78352 = target: DLG4_3, P78352
SHANK1, Q9Y566 = target: T2, SHANK1, Q9Y566
T2 sequence (Q9Y566 658-767, limits assumed, looked up): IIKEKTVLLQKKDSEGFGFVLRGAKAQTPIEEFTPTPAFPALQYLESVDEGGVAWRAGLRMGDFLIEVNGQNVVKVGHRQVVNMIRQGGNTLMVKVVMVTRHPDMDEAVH

NHERF3_4, Q5T2W1 = target: T3, NHERF3_4, Q5T2W1
T3 sequence (Q5T2W1 373-468, limits assumed, looked up): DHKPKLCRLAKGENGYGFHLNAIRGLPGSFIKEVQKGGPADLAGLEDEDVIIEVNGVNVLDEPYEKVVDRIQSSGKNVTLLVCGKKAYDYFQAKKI

PDZRN3_1, Q9UPQ7 = target: T4, PDZRN3_1, Q9UPQ7
T4 sequence (Q9UPQ7 244-349, limits assumed, looked up): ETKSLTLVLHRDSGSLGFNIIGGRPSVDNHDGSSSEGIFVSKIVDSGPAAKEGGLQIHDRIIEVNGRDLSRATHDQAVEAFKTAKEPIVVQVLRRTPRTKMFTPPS

APBA3_1, O96018 = target: T5, APBA3_1, O96018
T5 sequence (O96018 389-490, limits assumed, looked up): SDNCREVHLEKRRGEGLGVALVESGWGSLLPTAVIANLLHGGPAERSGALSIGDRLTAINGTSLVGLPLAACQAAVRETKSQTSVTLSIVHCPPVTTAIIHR

DLG5_1, Q8TDM6 = target: DLG5_1, Q8TDM6
LIMK2, P53671 = target: LIMK2, P53671
FRMPD2_3, Q68DX3 = target: FRMPD2_3, Q68DX3
TJP1_3, Q07157 = target: TJP1_3, Q07157
MAGI1_2, Q96QZ7 = target: MAGI1_2, Q96QZ7
Inadl_5, Q8NI35 = target: Inadl_5, Q8NI35
Inadl_4, Q8NI35 = target: Inadl_4, Q8NI35
NOS1, P29475 = target: NOS1, P29475
DLG3_3, Q92796 = target: T6, DLG3_3, Q92796
T6 sequence (Q92796 374-475, limits assumed, looked up): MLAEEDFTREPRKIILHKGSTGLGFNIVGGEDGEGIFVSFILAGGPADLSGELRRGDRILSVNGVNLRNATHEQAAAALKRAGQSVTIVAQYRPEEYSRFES

SNX27, Q96L92 = target: SNX27, Q96L92
FRMPD4, Q14CM0 = target: FRMPD4, Q14CM0
AHNAK1, Q09666 = target: AHNAK1, Q09666
Inadl_9, Q8NI35 = target: Inadl_9, Q8NI35
SIPA1L2, Q9P2F8 = target: T7, SIPA1L2, Q9P2F8
T7 sequence (Q9P2F8 945-1036, limits assumed, looked up): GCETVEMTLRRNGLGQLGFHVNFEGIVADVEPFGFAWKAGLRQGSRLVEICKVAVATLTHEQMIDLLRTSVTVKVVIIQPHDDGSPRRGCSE

PDZD2_2, O15018 = target: T8, PDZD2_2, O15018
T8 sequence (O15018 329-429, limits assumed, looked up): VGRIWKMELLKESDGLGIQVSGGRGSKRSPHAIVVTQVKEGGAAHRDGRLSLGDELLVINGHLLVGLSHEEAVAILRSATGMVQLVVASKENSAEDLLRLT

IL16_3, Q14005 = target: IL16_3, Q14005
LRRC7, Q96NW7 = target: T9, LRRC7, Q96NW7
T9 sequence (Q96NW7 1440-1537, limits assumed, looked up): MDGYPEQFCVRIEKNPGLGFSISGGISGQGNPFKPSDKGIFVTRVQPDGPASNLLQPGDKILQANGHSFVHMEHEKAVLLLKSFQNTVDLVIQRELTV

Sequence of LNX1_3, Q8TBB1 (Q8TBB1 500-596): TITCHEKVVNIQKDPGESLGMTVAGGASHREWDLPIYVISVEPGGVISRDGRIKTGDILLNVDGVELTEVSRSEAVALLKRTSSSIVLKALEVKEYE
Sequence of LIMK2, P53671 (P53671 143-248): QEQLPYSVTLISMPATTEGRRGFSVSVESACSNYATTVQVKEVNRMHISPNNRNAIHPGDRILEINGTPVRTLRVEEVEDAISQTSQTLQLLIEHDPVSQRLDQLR
Sequence of MAGI1_2, Q96QZ7 (Q96QZ7 456-580): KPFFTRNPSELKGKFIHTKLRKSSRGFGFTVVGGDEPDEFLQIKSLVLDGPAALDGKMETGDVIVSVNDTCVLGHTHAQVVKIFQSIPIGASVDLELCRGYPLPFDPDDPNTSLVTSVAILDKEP
Sequence of Inadl_1, Q8NI35 (Q8NI35 113-229): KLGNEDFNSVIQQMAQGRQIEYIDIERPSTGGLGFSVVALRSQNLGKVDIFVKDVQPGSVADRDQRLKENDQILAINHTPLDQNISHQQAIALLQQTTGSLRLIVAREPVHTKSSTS
Sequence of TJP1_3, Q07157 (Q07157 416-512): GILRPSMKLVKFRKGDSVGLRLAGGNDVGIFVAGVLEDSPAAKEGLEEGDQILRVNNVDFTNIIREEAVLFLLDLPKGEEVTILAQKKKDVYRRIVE
Sequence of Inadl_9, Q8NI35 (Q8NI35 1530-1615): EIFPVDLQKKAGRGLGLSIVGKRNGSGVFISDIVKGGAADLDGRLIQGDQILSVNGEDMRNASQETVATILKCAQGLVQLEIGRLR
Sequence of AHNAK1, Q09666 (Q09666 4-100): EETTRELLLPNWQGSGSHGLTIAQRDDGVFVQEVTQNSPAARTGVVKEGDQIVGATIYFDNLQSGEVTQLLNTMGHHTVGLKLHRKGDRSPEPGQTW
Sequence of GORASP1, Q9BQQ3 (Q9BQQ3 1-208): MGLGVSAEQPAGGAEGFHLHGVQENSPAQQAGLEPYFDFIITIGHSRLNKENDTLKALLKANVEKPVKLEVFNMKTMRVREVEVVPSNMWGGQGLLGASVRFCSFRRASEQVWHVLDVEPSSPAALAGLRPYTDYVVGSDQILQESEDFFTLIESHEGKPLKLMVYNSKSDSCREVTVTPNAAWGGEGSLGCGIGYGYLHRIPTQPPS
Sequence of FRMPD4, Q14CM0 (Q14CM0 67-160): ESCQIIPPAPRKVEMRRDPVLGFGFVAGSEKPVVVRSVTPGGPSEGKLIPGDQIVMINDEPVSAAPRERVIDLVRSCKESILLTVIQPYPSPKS
Sequence of NOS1, P29475 (P29475 9-101): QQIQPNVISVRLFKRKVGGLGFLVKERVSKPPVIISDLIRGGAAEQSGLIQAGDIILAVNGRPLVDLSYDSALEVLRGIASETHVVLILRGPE
Sequence of GIPC2, Q8TF65 (Q8TF65 112-203): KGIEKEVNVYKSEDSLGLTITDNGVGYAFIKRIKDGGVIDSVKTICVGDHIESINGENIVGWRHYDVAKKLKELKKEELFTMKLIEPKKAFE
Sequence of GRID2IP_2, A4D2P6 (A4D2P6 272-370): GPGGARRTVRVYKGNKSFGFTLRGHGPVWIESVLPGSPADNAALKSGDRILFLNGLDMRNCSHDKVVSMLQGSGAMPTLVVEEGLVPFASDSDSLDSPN
Sequence of FRMPD2_3, Q68DX3 (Q68DX3 1073-1166): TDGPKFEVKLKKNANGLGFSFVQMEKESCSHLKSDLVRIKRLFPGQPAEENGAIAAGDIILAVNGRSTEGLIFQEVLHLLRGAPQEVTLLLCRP
Sequence of NHERF4_4, Q86UT5 (Q86UT5 464-550): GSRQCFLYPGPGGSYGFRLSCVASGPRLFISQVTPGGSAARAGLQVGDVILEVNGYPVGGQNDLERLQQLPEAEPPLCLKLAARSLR
Sequence of IL16_3, Q14005 (Q14005 1107-1207): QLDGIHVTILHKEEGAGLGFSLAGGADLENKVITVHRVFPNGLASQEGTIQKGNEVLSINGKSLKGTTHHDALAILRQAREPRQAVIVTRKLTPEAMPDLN
Sequence of DLG4_3, P78352 (P78352 306-403): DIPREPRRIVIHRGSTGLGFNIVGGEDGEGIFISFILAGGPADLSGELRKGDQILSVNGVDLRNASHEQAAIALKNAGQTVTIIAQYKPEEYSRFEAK
Sequence of DLG5_1, Q8TDM6 (Q8TDM6 617-713): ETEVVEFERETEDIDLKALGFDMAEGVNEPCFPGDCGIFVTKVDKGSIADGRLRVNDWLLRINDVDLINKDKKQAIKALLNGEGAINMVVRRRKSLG
Sequence of Inadl_5, Q8NI35 (Q8NI35 673-780): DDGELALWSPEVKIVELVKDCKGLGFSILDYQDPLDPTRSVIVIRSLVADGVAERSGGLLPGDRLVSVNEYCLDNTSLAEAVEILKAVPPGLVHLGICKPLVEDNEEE
Sequence of Inadl_4, Q8NI35 (Q8NI35 547-651): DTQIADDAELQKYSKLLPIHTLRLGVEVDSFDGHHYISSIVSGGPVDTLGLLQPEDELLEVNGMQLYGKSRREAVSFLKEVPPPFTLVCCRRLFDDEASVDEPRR

| Binder | pKd (GRID2IP_2, A4D2P6) | pKd (GIPC2, Q8TF65) | pKd (LNX1_3, Q8TBB1) | pKd (NHERF4_4, Q86UT5) | pKd (Inadl_1, Q8NI35) | pKd (LNX2_3, Q8N448) | pKd (GORASP1, Q9BQQ3) | pKd (DLG4_3, P78352) | pKd (SHANK1, Q9Y566) | pKd (NHERF3_4, Q5T2W1) | pKd (PDZRN3_1, Q9UPQ7) | pKd (APBA3_1, O96018) | pKd (DLG5_1, Q8TDM6) | pKd (LIMK2, P53671) | pKd (FRMPD2_3, Q68DX3) | pKd (TJP1_3, Q07157) | pKd (MAGI1_2, Q96QZ7) | pKd (Inadl_5, Q8NI35) | pKd (Inadl_4, Q8NI35) | pKd (NOS1, P29475) | further results |
| --- | --- | --- | --- | --- | --- | --- | --- | --- | --- | --- | --- | --- | --- | --- | --- | --- | --- | --- | --- | --- | --- |
| B1 | below the threshold | below the threshold | 3.83 | 3.65 | below the threshold | below the threshold | 4.13 | below the threshold | below the threshold | 3.74 | below the threshold | below the threshold | below the threshold | below the threshold | below the threshold | below the threshold | below the threshold | 3.62 | below the threshold | below the threshold | pKd (DLG3_3, Q92796): below the threshold; pKd (SNX27, Q96L92): 3.76; pKd (FRMPD4, Q14CM0): below the threshold; pKd (AHNAK1, Q09666): below the threshold; pKd (Inadl_9, Q8NI35): below the threshold; pKd (SIPA1L2, Q9P2F8): 3.89; pKd (PDZD2_2, O15018): below the threshold; pKd (IL16_3, Q14005): below the threshold; pKd (LRRC7, Q96NW7): below the threshold |
| B2 | 4.75 | below the threshold | below the threshold | below the threshold | below the threshold | below the threshold | below the threshold | below the threshold | 5.33 | 5.69 | 3.79 | below the threshold | below the threshold | below the threshold | below the threshold | below the threshold | below the threshold | below the threshold | below the threshold | below the threshold | pKd (DLG3_3, Q92796): below the threshold; pKd (SNX27, Q96L92): 5.08; pKd (FRMPD4, Q14CM0): 4.07; pKd (AHNAK1, Q09666): below the threshold; pKd (Inadl_9, Q8NI35): below the threshold; pKd (SIPA1L2, Q9P2F8): below the threshold; pKd (PDZD2_2, O15018): 4.23; pKd (IL16_3, Q14005): below the threshold; pKd (LRRC7, Q96NW7): below the threshold |
| B3 | 4.38 | below the threshold | below the threshold | 3.6 | below the threshold | below the threshold | below the threshold | below the threshold | 3.86 | 4.26 | 4.13 | below the threshold | below the threshold | below the threshold | below the threshold | below the threshold | below the threshold | below the threshold | below the threshold | below the threshold | pKd (DLG3_3, Q92796): below the threshold; pKd (SNX27, Q96L92): 4.68; pKd (FRMPD4, Q14CM0): below the threshold; pKd (AHNAK1, Q09666): below the threshold; pKd (Inadl_9, Q8NI35): below the threshold; pKd (SIPA1L2, Q9P2F8): below the threshold; pKd (PDZD2_2, O15018): 3.97; pKd (IL16_3, Q14005): below the threshold; pKd (LRRC7, Q96NW7): below the threshold |
| B4 | 4.06 | below the threshold | below the threshold | below the threshold | below the threshold | below the threshold | 4.36 | 4.87 | 3.58 | 3.58 | 3.77 | below the threshold | below the threshold | below the threshold | below the threshold | below the threshold | 4.81 | below the threshold | below the threshold | 3.71 | pKd (DLG3_3, Q92796): 4.63; pKd (SNX27, Q96L92): 5.48; pKd (FRMPD4, Q14CM0): below the threshold; pKd (AHNAK1, Q09666): below the threshold; pKd (Inadl_9, Q8NI35): 3.82; pKd (SIPA1L2, Q9P2F8): below the threshold; pKd (PDZD2_2, O15018): 4.46; pKd (IL16_3, Q14005): below the threshold; pKd (LRRC7, Q96NW7): 3.6 |

Source: PMC9482650, “Quantitative fragmentomics allow affinity mapping of interactomes” (Nature Communications, 2022)
